B1: Gint4.T (ssRNA)
RNA: UGUCGUGGGGCAUCGAGUAAAUGCAAUUCGACA
modifications: 2'-F all pyrimidines
B2: Gint4 (ssRNA)
RNA: GGGAGACAAGAAUAAACGCUCAAUCAUAAGAGGUAUCACAUUGUCGUGGGGCAUCGAGUAAAUGCAAUUCGACAGGAGGCUCACAACAGGC
modifications: 2'-F all pyrimidines

How the values were obtained:
[1] = molecular target: PDGFRalpha extracellular domain (EC-PDGFRα) (Homo sapiens, UniProt P16234 P16234:24-528); test: filter; no saturable binding detectable up to 1000 nM; details: tags: soluble, R&D Systems; label: 5'-32P
[2] = molecular target: PDGFRbeta extracellular domain (EC-PDGFRβ) (Homo sapiens, UniProt P09619 P09619:33-532); test: filter; 1 nM radiolabeled RNA, 1-1000 nM protein; unrelated aptamer background subtracted; details: tags: soluble, R&D Systems; label: 5'-32P
PDGFRbeta extracellular domain (EC-PDGFRβ), sequence (P09619 33-532, one chain of several): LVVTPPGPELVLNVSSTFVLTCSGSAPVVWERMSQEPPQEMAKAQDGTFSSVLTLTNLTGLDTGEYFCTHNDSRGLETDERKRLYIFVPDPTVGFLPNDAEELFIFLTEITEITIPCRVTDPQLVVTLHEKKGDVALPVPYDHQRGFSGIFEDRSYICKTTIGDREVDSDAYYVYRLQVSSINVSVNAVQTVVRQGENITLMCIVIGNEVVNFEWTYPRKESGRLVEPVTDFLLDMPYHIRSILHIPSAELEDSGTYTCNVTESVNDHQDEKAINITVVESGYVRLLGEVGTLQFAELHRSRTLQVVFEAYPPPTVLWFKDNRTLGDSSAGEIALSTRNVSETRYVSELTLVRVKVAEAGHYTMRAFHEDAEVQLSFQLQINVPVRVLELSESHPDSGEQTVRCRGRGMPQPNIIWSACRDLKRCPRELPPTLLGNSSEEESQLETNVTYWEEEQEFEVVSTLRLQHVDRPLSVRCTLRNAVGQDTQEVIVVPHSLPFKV

PDGFRalpha extracellular domain (EC-PDGFRα), sequence (P16234 24-528, one chain of several): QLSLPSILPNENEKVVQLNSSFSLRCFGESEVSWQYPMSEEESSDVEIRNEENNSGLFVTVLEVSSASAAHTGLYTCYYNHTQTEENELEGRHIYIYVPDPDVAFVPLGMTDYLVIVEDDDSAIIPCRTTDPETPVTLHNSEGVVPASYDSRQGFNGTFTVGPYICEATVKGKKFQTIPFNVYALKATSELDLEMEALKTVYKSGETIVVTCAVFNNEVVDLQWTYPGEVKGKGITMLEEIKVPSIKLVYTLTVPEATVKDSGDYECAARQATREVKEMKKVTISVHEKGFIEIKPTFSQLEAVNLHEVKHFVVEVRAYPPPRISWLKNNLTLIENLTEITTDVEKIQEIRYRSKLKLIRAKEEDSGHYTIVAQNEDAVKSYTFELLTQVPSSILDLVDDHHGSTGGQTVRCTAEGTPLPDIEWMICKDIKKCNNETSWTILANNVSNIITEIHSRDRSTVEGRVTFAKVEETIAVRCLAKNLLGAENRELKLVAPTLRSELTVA

Binder	binding result [1]	Kd [2]
B1	no binding	9.6 nM
B2	–	10.4 nM

Source: patent US20150275215, “NEUTRALIZING RNA APTAMERS AGAINST PDGFBETA AND USES THEREOF IN THE THERAPY AND DIAGNOSIS OF HYPERPROLIFERATIVE DISEASES” (CONSIGLIO NAZIONALE DELLE RICERCHE, published 2015)
